According to PMC6327110, “Species-Specific Functional Regions of the Green Alga Gamete Fusion Protein HAP2 Revealed by Structural Studies” (Structure(London, England:1993), 2019):
Values joined by “and” are separate entries in the source; they are usually repeats but may differ in a detail not shown here. Equal values may be shown once.

Molecular target: the molecule itself
Assay: crystal structure; crystals grown from the HAP2-scFv A20 complex, sitting drop, 293K, 0.2M LiSO4, 0.1M Tris-HCl pH 8.5, 25% w/v PEG 5000 MME; space group P6_(3)22, 2.6 Å; no density for the scFv

B1: Chlamydomonas reinhardtii HAP2 ectodomain (residues 23-592) (domain or fragment)
chain: EVIASGRLEKCVVDGVTEELDCQEKVVVTLTVGNGQSLQTEALEFSLSCLNSPDGRCPCSCSAADPTCACRDLAAPLRVSLTKSPLWASYPLQYLSSFNWKPLEVILRPSNKVCKDGDWEDSPTCGWFSQGGVRVADSQGFCCECSSSQVWDDTFGSSKERTRANLDCDFWSDPLDILIGRKPVSAHCLTFDPQWYSGYELGAASLQFEIAITVEVPTAPSPTTATTSATPRTNNSSSANSTNSTNSPAPQFLSPPAPSTREVLHLGPSVPLASSASRLLSAKLLGDLAMYTQLPAISNQVLMVPQPPAAAAATGSPLDATLATNRSAWMLLDKTMLSMDGLACDKVGTGFSAFRYQPSGCGRAPQACLSGQLKDLWEADLARIADGRVPLYMITRFTGGSDTTLQSFSGGPLSFALPVTSHSQSLVTLSVAADGVRLVTNRSPGKITGAAVCRFAGTSCGGFEAVAARGYIYVNITNTGRLDSDYTLTVSNCSSNVRPIEARTLAVRAGSAASLDPPMELYVEDQAAAAARTCTVSLYDSVGAVTDSLTLSFYTNATQLVVKPSGGYNGDDDDK
modifications: N-linked glycan attached to Asn578; further N-linked glycans marked in Figure 1C
notes: HAP2, Chlamydomonas reinhardtii, Uniprot A4GRC6, soluble C-terminally truncated ectodomain, residues 23-592, ending at G592; enterokinase cleavage site immediately downstream of HAP2 G592, before the double strep-tag; Secreted from the vector pMT/BiP/TwinStrep; The strep tag was removed with enterokinase; Trimer in the crystal; trimers, hexamers and remaining monomers in solution; also called …
- stoichiometry N: 3 and 6
